Assay [1] deals with T1, H3(1-15)K9me2 peptide (UniProt P59226 2-16, dimethyl-lysine at K9).
T1 peptide: ARTKQTARKSTGGKA
The experiment in a line: ITC; FIG. 3B.

For assay [2], the target named is T1, H3(1-15)K9me2 peptide. The experiment in a line: ITC; FIG. 3A.
Another assay deals with H4K20me2. Briefly: ITC; FIG. 3B.
The next assay concerns the target H3K4me2. The experiment in a line: ITC; FIG. 3B.

B1: SHH1 SAWADEE domain (residues 125-258) (other)
chain: ADLAFEAKSARDYAWYDVSSFLTYRVLRTGELEVRVRFSGFDNRHDEWVNVKTSVRERSIPVEPSECGRVNVGDLLLCFQEREDQALYCDGHVLNIKRGIHDHARCNCVFLVRYELDNTEESLGLERICRRPEE
For the molecule B1, the Kd with H3(1-15)K9me2 peptide [1] and with H3(1-15)K9me2 peptide [2] was 1.9 µM throughout.

B2: SAWADEE domain (other)
chain: ADLAFEAKSARDYAWYDVSSFLTYRVLRTGELEVRVRFSGFDNRHDEWVNVKTSVRERSIPVEPSECGRVNVGDLLLCFQEREDQALYCDGHVLNIKRGIHDHARCNCVFLVRYELDNTEESLGLERICRRPEE
For the molecule B2, the Kd with H4K20me2 was determined as 80.6 µM; with H3K4me2, 52.1 µM.
